From US20250320278A1 (LA JOLLA INSTITUTE FOR IMMUNOLOGY, published 2025)
Where a chain is given by its changes, count along the chain named.

Tests used:
[1] = biological target: T1, SARS-CoV-2 N protein oligomerization domain (SARS-CoV-2, UniProt P0DTC9 247-364); test: Octet, KD (nM) heat map
T1 construct: also called N olig. domain; OD

[2] = biological target: T2, SARS-CoV-2 N protein, full-length (SARS-CoV-2, UniProt P0DTC9 1-419); test: Octet (BLI) kinetics
T2 construct: mature; also called SARS-CoV-2 nucleoprotein

[3] = biological target: SARS-CoV-2 N protein RNA-binding domain (SARS-CoV-2, UniProt P0DTC9 44-180); test: Octet (BLI) kinetics

B1: NP3-A11 (antibody, V domains shown)
VH: EVQLQESGPELKKPGETVKISCKVSGYTFTNYGMNWVKQAPGKGLKWMGWINTYTGEPKYGDDFKGRFALSLETSAGTAYLRINNLKNEDTATYFCARSHGNYENHFDYWGQGTTLTVSS
VL: DIQMTQSPSSLSVSVGETVTITCRASENIYSSLAWYQQKQGKSPQLLVYTATDLADGVPSRFSGSGSGSQYSLRINSLQSEDFGSYYCQHFWGFPWTFGGGTKLEIK
With B1 the binding result [1] was “no binding”, the Kd [2] was 0.71 nM and the Kd [3] was 1.01 nM.

B2: NP3-B1 (antibody, V domains shown)
VH: QVQLQQSGPELVKPGTSVTVYCKASGYTFTTYNIYWVKQSHGKSLEWIGYIDPYNGGTSYNQKFKGKATLTVDKSSSAAYMHLNSLTSEDSAVYYCALPWDYWGQGTTVTVSS
VL: not shown
For B2, the binding result [1] was “no binding” and the Kd [2] was 2.01 nM.

B3: NP3-B2 (antibody, V domains shown)
VH: QIQLVQSGGGLVKPGGSLKLSCAASGFTFSDYYMSWVRQTPEKRLEWVATISDGGSYTYYPDSVKGRFTISRDNAKNNLYLHMSSLKSEDTAMYYCARGSTYGNPLDYWGQGTTLTVSS
VL: DIQMTQTTSSLSASLGDRVTINCSASQGISNYLNWYQQKPDGTVKLLIYFTSSLHSGFPSRFSGSGSGTDFSLTISNLEPEDIATYYCQQYSKLPFTFGSGTKLEIK
B3 was tested, and the binding result [1] was “no binding”, the Kd [2] was 1.51 nM and the Kd [3] was 0.9 nM.

B4: NP3-E5 (antibody, V domains shown)
VH: B3 VH with Q1E, I2V, Q6E, S56N, H82Q, Y108H
VL: B3 VL with F50Y, S53I, F58V, F71Y
With B4 the binding result [1] was “no binding”, the Kd [2] was 0.8 nM and the Kd [3] was 1.38 nM.

B5: NP3-G6 (antibody, V domains shown)
VH: B3 VH with Q1E, I2V, Q6E, T114S, L115V
VL: B3 VL with T7S, T8P, S9A
B5 was tested, and the binding result [1] was “no binding”, the Kd [2] was 0.43 nM and the Kd [3] was 0.88 nM.

B6: NP3-D5 (antibody, V domains shown)
VH: DVQLQESGPELVRPGVSVKISCKGSGYTFTDYVMHWVKQSHAKSLEWIGVISTYSGNTNYNQKFKGKATMTVDKFSNTAYMELARLTSEDSAIYYCTRGTGDFDYWGQGTTLTVSS
VL: DIVMTQSHKFMSTSVGDRVSITCKASQDVGTAVAWYQQKPGQSPKLLIYWASTRHTGVPDRFTGSGSGTDFTLTISNVQSEDLADYFCHQYSSYPYTFGGGTKLEIK
B6: no binding [1].

B7: NP3-E2 (antibody, V domains shown)
VH: EVQLQQSGPEVVRPGVSVKISCKGSGYTFTDYALHWVKQSHTKSLEWIGVISTYSGTTNYNQNFKGKATMAVDKSSSTAYMELARLTSEDSAIYYCASGGNYGLDYWGQGTSVTVSS
VL: DIVMTQSHKFMSTSVGDRVSITCKANQDVGSAVAWYQEKPGQSPKLLIYWTSTRHTGVPDRFTGNGSGTDFTLTISNVQSEDLVDYFCQQYSRYPLTFGSGTKLELK
In the case of B7, the binding result [1] is reported as “no binding” and the Kd [2] is reported as 0.57 nM.

B8: NP3-E3 (antibody, V domains shown)
VH: QIQLVQSGPDLKKPGETVKISCKASGYTFTDYSMHWVKQVPGKGLKWMGWINTETDKPTYADDFKGRFAFSLETSASTAYSQINNLKNEDTATYFCARHYKYDEAWSPYWGQGTLVTVSA
VL: B1 VL with Q3V, M4L, S9A, S32N, K42Q, T50A, S69T, R74K, S85N, F94T
In the case of B8, the binding result [1] is reported as “no binding” and the Kd [3] is reported as 1.36 nM.

B9: NP3-G5 (antibody, V domains shown)
VH: EVQLVESGPELKKPGEPVRISCKASGYTFTDYGMNWVKQAPGKGLKWMGWINTYTGEPTYADDFKGRFAFSLETSASTAFLQITNLKNEDTATYFCARAPLLRSYFDYWGQGTSVTVSS
VL: DIVMTQSHKFMSTSVGDRISITCKASQDVSTAVVWYQQKPGQSLKLLIYSASYRYTGVPDRFTGSGSGTDFTFTISSVQAEDLAIYYCQQYYSTPFTFGSGTKLEIK
B9: no binding [1].
